Results published in patent US20240029824A1 (University of Washington, published 2024).
Blank lines part the entries; values can stand above or below the binder they belong to.

Assays:
[1] = target: T1, DHT03_variant_ABC-2 chain C; assay: native MS; loop-connectivity variant of DHT03, chains of one ABC heterotrimer
T1 chain: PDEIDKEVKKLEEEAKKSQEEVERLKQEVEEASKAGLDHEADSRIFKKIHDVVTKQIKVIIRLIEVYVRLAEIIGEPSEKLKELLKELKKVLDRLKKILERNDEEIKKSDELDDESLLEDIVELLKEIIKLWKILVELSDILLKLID

[2] = target: T2, DHT06 chain C; assay: co-expression, IMAC, SEC, native MS; chains of one ABC heterotrimer
T2 chain: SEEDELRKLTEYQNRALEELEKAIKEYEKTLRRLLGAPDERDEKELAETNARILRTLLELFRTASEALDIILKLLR
Text: (§1) Genes encoding 85 heterotrimers in a tricistronic expression vector were obtained, and the proteins were expressed in E. coli and purified via IMAC with only one chain having the 6×His-tag. Nine of the designs (FIG. 3a) had monodisperse SEC peaks (FIG. 3b), were almost exclusively ABC by nMS, and had good SAXS fits to the design models (Table 7). […] Eight of the designs are parallel heterotrimers, while DHTO9 is an antiparallel heterotrimer. […] For 3 other designs, only the ABC heterotrimer was determined to form by nMS (when the respective SEC fraction was analyzed) but the heterotrimer SEC peak was preceded by soluble aggregate that would make building with these constructs difficult downstream. We explored the dependence of cooperativity on connectivity between the three chains by changing the positions of the loops across different helices in DHT03, while keeping the rest of the interface intact. […] The ability to sustain alternate loop closures increases the number of heteromeric building blocks available for future nanostructure assembly applications and may enable rigid fusion of functional domains to the different termini available.
(§2) Samples were analyzed by online buffer exchange native mass spectrometry (nMS) to evaluate sample purity and accurately determine oligomeric states⁴². Multiple instruments were used as the analyses were carried out over the duration of the protein design process. The mass spectrometers used for detection were a Q Exactive™ UHMR modified with a surface-induced dissociation device and an Exactive™ Plus EMR modified with a selection quadrupole and a surface-induced dissociation device (Thermo Fisher Scientific)⁴³. The liquid chromatography systems used for the buffer exchange include a Vanquish™ Duo UHPLC and a Dionex™ Ultimate 3000 HPLC (Thermo Fisher Scientific). A heated electrospray ionization source (HESI-II, Thermo Fisher Scientific) with a spray voltage of ˜4 kV was used for ionization.

[3] = target: T3, DHT08 chain C; assay: as above
T3 chain: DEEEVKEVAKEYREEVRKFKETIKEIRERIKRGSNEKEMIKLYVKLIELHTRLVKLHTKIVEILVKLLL
Text: as §1, §2

[4] = target: T4, DHT09 chain C; assay: as above
T4 chain: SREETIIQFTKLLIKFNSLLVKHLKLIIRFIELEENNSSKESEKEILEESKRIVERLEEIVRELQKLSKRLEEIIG
Text: as §1, §2

[5] = target: T5, DHT01 chain C; assay: co-expression, IMAC and Strep-Tactin pull-down, SEC, native MS; chains of one ABC heterotrimer
T5 chain: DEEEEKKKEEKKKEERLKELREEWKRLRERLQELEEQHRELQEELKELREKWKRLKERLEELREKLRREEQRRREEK
Text: We obtained genes encoding 20 coiled coil designed heterotrimers (DHTs) in a tricistronic E. coli expression vector with one chain having a 6×His-tag and a second chain having Strep-tag II, expressed the proteins, and purified by immobilized metal affinity chromatography (IMAC) and Strep-Tactin pull-down. All designs were soluble and for 6 designs, all three components were observed by liquid chromatography-mass spectrometry (LC-MS) after both pull-down approaches. Of these, 5 eluted as monodisperse peaks by SEC, but only 1 design (DHT01) was an exclusive ABC heterotrimer by native mass spectrometry (nMS) and had good agreement with the design model via small angle X-ray scattering (SAXS) (FIG. 2d, Table 7).
as §2, with “ionization. Protein samples stored in Tris buffer were injected (0.1-2 ug) onto the LC system and exchanged at a flow rate of 100-200 uL*min⁻¹ into 200 mM ammonium acetate (mobile phase) prior to ionization. Buffer exchange columns used include self-packed columns with P6 polyacrylamide gel (Bio-Rad Laboratories) and prototype buffer exchange columns provided by Thermo Fisher Scientific (Sunnyvale, CA). Instrument parameters were optimized to allow for ion transmission while minimizing unintentional ion activation. […]” for “ionization.”

[6] = target: T6, DHT02 chain C; assay: co-expression, IMAC, SEC, native MS; chains of one ABC heterotrimer
T6 chain: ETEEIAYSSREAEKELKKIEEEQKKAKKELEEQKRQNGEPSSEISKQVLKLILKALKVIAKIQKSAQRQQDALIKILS
Text: as §1, §2

[7] = target: T7, DHT07 chain C; assay: as above
T7 chain: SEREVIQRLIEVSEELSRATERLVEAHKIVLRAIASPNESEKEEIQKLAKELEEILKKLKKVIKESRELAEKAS
Text: as §1, §2

[8] = target: T8, DHT03 chain C (SEQ ID NO: 65); assay: co-expression, SEC, native MS, SAXS; chains of one ABC heterotrimer
T8 chain: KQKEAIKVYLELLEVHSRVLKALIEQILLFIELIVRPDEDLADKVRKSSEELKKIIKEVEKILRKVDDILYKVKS

[9] = target: T9, DHT10 chain C; assay: co-expression, IMAC, SEC, native MS; chains of one ABC heterotrimer
T9 chain: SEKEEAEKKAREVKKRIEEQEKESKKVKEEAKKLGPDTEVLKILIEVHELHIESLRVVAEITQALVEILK
Text: as §1, §2

[10] = target: T10, DHT04 chain C; assay: as above
T10 chain: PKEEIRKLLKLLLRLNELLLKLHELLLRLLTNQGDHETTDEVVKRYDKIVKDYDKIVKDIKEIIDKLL
Text: as §1, §2

B3: DHT08 chain B (designed binder)
chain: DKEEKIKEILRRVQELRREHEELEERLKELKKELEKSPSQEELKKFIKLAQELIKLTLELIELSLRLIELLLG
binding result [3]: binds

B4: DHT09 chain B (designed binder)
chain: SKEEILKLHLEVAEIHIETVKIYLEVIKILIRLIEKNSSKEDERELEEELKELERELEELQKKLEEIRKELQEIEG
binding result [4]: binds

B6: DHT02 chain B (designed binder)
chain: PQLDKFRDESRYLDKASKEVEDEIKKIEKIIRDADEKSLPEEALQDVVKSVVKVYLKSVKETIKSIELVIELIKVIM
binding result [6]: binds

B7: DHT07 chain B (designed binder)
chain: DREEKLERETEKLEKKIRESQRRMEELRKQIETDPDEKELLEILIRSLRLLEEQLEALRKLNHAAQQLLG
binding result [7]: binds

Further lines, results first:

binding result [1]: binds
B1: DHT03_variant_ABC-2 chain B (designed binder)
chain: QKEAIKVYLELLEVHSRVLKALIEQIKLFIELIKRK

binding result [2]: binds
B2: DHT06 chain B (designed binder)
chain: SEEDELEKAIREQKKALERLKEAIERYEETLKRGKNEKELAKTNAEILKTLLELFKSQLELAEIILKLLR

binding result [5]: binds
B5: DHT01 chain B (designed binder)
chain: SEQERREKAKEEVRELNEEFKEAEKRFRKLQEETKKALEEVEELNQRFEEALEEVERIKRRQK

binding result [8]: binds
B8: DHT03_2arm_A21/Bt18/C chain B (designed binder)
chain: TEEKIAKEISRIAEESKKRIEELARKADNKTTETEVDKAIEKIAKLAREAIKRIEDLAKNLASEEFMARAISAIAELAKKAIEAIYRLADNHTTDTFMAKAIEAIAELAKEAIKAIADLAKNHTTEEFMARAISAIAELAKKAIEAIYRLADNHTTDTFMAKAIEAIAELAKEAIKAIADLAKNHTTEEFMAKAISAIMELAVKAILAIARLASNHTSQTYREKAREAVEKIARTAEKAIEDLAKNITTEEYKERAKKARAIVRVMAEVAKLLIEAVESQEEVERLKQEVEKASKAGLDHEGDSRIFKKIHDVVTKQIKVIIRLIAVYAELVAIIG

binding result [9]: binds
B9: DHT10 chain B (designed binder)
chain: SELEEEIKRIRKEIEESRRRIEELRKKAQKAREGSSEKEFLQIYIELQKVLIEQIKIYIELLQIIFELQS

binding result [10]: binds
B10: DHT04 chain B (designed binder)
chain: DEELIIYIIELLLKDDELLLKSLEIILRIIQLQLTSKDKDDGTDKIKKLVDESKKILDDSERLAEELRKIEEKLK
